Results on 1 variant are retold here after paper PMC11496107.

To fix the notation:
B1: LXRα-VP16 (wild-type liver X receptor-α fused to VP16) [human] / Gal4-SRC1 (aa 570-780) [not stated] (parent)
chain 1: MSLWLGAPVPDIPPDSAVELWKPGAQDASSQAQGGSSCILREEARMPHSAGGTAGVGLEAAEPTALLTRAEPPSEPTEIRPQKRKKGPAPKMLGNELCSVCGDKASGFHYNVLSCEGCKGFFRRSVIKGAHYICHSGGHCPMDTYMRRKCQECRLRKCRQAGMREECVLSEEQIRLKKLKRQEEEQAHATSLPPRASSPPQILPQLSPEQLGMIEKLVAAQQQCNRRSFSDRLRVTPWPMAPDPHSREARQQRFAHFTELAIVSVQEIVDFAKQLPGFLQLSREDQIALLKTSAIEVMLLETSRRYNPGSESITFLKDFSYNREDFAKAGLQVEFINPIFEFSRAMNELQLNDAEFALLIAISIFSADRPNVQDQLQVERLQHTYVEALHAYVSIHHPHDRLMFPRMLMKLVSLRTLSSVHSEQVFALRLQDKKLPPLLSEIWDVHE
chain 2: PSRLNIQPAKAESKDNKEIASILNEMIQSDNSSSDGKPLDSGLLHNNDRLSDGDSKYSQTSHKLVQLLTTTAEQQLRHADIDTSCKDVLSCTGTSNSASANSSGGSCPSSHSSLTERHKILHRLLQEGSPSDITTLSVEPDKKDSASTSVSVTGQVQGNSSIKLELDASKKKESKDHQLLRYLLDKDEKDLRSTPNLSLDDVKVKVEKKEQ

Variants of B1 are the subject of the first experiment. As to the kind of experiment: mammalian two-hybrid assay (luciferase reporter, HEK293 cells). The settings on record: with Gal4-SRC1 (aa 570-780); GOF sub-panel; highest T0901317 (T09) dose plotted (rightmost point); 20 h; parent: 100; read off a plot. A general note: A reporter such as luciferase makes a cellular process visible.
For chain 1 M346V, the percent of parent was determined as 100 % WT.

Staying with this experiment, now noted: with Gal4-SRC1 (aa 570-780); GOF sub-panel; untreated condition (leftmost point, plotted an order of magnitude below the lowest T09 dose); 20 h; parent: 100; read off a plot.
With chain 1 M346V, the percent of parent is 18 % WT.
